{"source": "patent US9476056B2", "about": "“Recombinant vector for producing and secreting peptide or protein of interest by propionibacteria and applications thereof” (INSTITUT NATIONAL DE LA SANTE ET DE LA RECHERCHE MEDICALE …, priority 2010, dated 2016)", "system": "HT29 human colon cancer cells", "assay": "Cytotoxicity (viability) test on HT29 cells, methylene blue staining", "assay_type": "cell-based", "settings": "TRAIL alone, sublethal doses 25, 50 and 100 ng/ml, 24 hours", "description": "FIG. 1: Graphs illustrating the synergy observed in vitro between TRAIL and P. freudenreichii metabolites. HT29 colon cancer cells were treated with sublethal doses of TRAIL (25 ng/ml, 50 ng/ml and 100 ng/ml). Various doses of SCFA (propionate/acetate SCFA, FIG. 1A) or of P. freudenreichii supernatant (FIG. 1B) were used in co-treatment. Viability of the HT29 cells was determined after 24 hours of treatment. […] More precisely, the viability illustrated in FIG. 1 was determined using the following cytotoxicity test. HT29 human colon cancer cells (ATCC, Biovalley) were cultured in 96-well plates (30,000 cells/well) for 24 hours. […] At the end of treatment (24 hours), the medium was discarded and the adherent cells were washed three times with 1× PBS (100 μl/well) and fixed in 99% ethanol (100 μl/well) for 30 minutes. After discarding the ethanol, the fixed cells were air dried and then stained for 30 minutes with methylene blue (diluted in 1× borate buffer). After three washings in water and drying (roughly 30 minutes), 100 μl of hydrochloric acid (0.1 N) was added to the wells. The plates were then analyzed by spectrophotometer at a wavelength of 620 nm (iEMS Reader MF; Lab-systems, Helsinki, Finland)."}
{"molecule": "TRAIL: cytokine TNF-related apoptosis-inducing ligand; SuperKillerTRAIL™ (Alexis Biochemicals) used in the HT29 test (protein) TSEETISTVQEKQQNISPLVRERGPQRVAAHITGTRGRSNTLSSPNSKNEKALGRKINSWESSRSGHSFLSNLHLRNGELVIHEKGFYYIYSQTYFRFQEEIKENTKNDKQMVQYIYKYTSYPDPILLMKSARNSCWSKDAEYGLYSIYQGGIFELKENDRIFVSVTNEHLIDMDHEASFFGAFLVG", "values": [{"measurement": "cell death (viability of HT29 cells)", "result": "do not significantly induce cell death"}]}
